Measured values taken from the supplement of paper PMC5998384.

What was measured:
[1] = tested on: HeLa Kyoto; test: melting temperature (median over replicates), in situ; higher = more thermally stable
[2] = tested on: HeLa Kyoto; test: solubility in G1/S (NP-40 vs SDS abundance) (log2 ratio); higher = more soluble; settings: cell cycle stage: G1/S
[3] = tested on: HeLa Kyoto; test: solubility change mitosis vs G1/S (difference of NP-40 vs SDS log2 ratios) (log2 ratio difference); higher = more soluble in mitosis
[4] = tested on: HeLa Kyoto; test: thermal stability score vs G1/S (z-score of summed log2 fold changes over temperatures); higher = more thermally stable than in G1/S
[5] = cell cycle stage: early G1 (4.5 h after nocodazole release)
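For melting temperature (median over replicates), in situ in this document: HeLa Kyoto cells synchronized by double thymidine or nocodazole block, proteins quantified by TMT10plex mass spectrometry, three independent biological replicates.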
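For solubility change mitosis vs G1/S (difference of NP-40 vs SDS log2 ratios) in this document: synchronized HeLa Kyoto cells (double thymidine block for G1/S, nocodazole release for mitosis), protein amounts in NP-40 versus SDS lysates quantified by mass spectrometry, three biological replicates.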
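For solubility in G1/S (NP-40 vs SDS abundance) in this document: HeLa Kyoto cells arrested at G1/S by double thymidine block, proteins quantified by TMT10plex mass spectrometry in mild NP-40 versus SDS extracts, three biological replicates.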
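For thermal stability score vs G1/S (z-score of summed log2 fold changes over temperatures) in this document: synchronized HeLa Kyoto cells, proteins quantified by TMT10plex mass spectrometry, three biological replicates, mitosis taken 0.5 h after nocodazole release, G1/S directly after double thymidine block.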

Sequence	melting temperature ([1]; cell cycle stage: G1/S) [°C]	melting temperature ([1]; cell cycle stage: mitosis) [°C]	solubility in G1/S (log2) [2]	solubility change mitosis (log2) [3]	thermal stability score [4, 5]	thermal stability score ([4]; cell cycle stage: mitosis)
MADGPRCKRRKQANPRRNNVTNYNTVVETNSDSDDEDKLHIVEEESVTDAADCEGVPEDDLPTDQTVLPGRSSEREGNAKNCWEDDRKEGQEILGPEAQADEAGCTVKDDECESDAENEQNHDPNVEEFLQQQDTAVIFPEAPEEDQRQGTPEASGHDENGTPDAFSQLLTCPYCDRGYKRFTSLKEHIKYRHEKNEDNFSCSLCSYTFAYRTQLERHMTSHKSGRDQRHVTQSGCNRKFKCTECGKAFKYKHHLKEHLRIHSGEKPYECPNCKKRFSHSGSYSSHISSKKCISLIPVNGRPRTGLKTSQCSSPSLSASPGSPTRPQIRQKIENKPLQEQLSVNQIKTEPVDYEFKPIVVASGINCSTPLQNGVFTGGGPLQATSSPQGMVQAVVLPTVGLVSPISINLSDIQNVLKVAVDGNVIRQVLENNQANLASKEQETINASPIQQGGHSVISAISLPLVDQDGTTKIIINYSLEQPSQLQVVPQNLKKENPVATNSCKSEKLPEDLTVKSEKDKSFEGGVNDSTCLLCDDCPGDINALPELKHYDLKQPTQPPPLPAAEAEKPESSVSSATGDGNLSPSQPPLKNLLSLLKAYYALNAQPSAEELSKIADSVNLPLDVVKKWFEKMQAGQISVQSSEPSSPEPGKVNIPAKNNDQPQSANANEPQDSTVNLQSPLKMTNSPVLPVGSTTNGSRSSTPSPSPLNLSSSRNTQGYLYTAEGAQEEPQVEPLDLSLPKQQGELLERSTITSVYQNSVYSVQEEPLNLSCAKKEPQKDSCVTDSEPVVNVIPPSANPINIAIPTVTAQLPTIVAIADQNSVPCLRALAANKQTILIPQVAYTYSTTVSPAVQEPPLKVIQPNGNQDERQDTSSEGVSNVEDQNDSDSTPPKKKMRKTENGMYACDLCDKIFQKSSSLLRHKYEHTGKRPHECGICKKAFKHKHHLIEHMRLHSGEKPYQCDKCGKRFSHSGSYSQHMNHRYSYCKREAEERDSTEQEEAGPEILSNEHVGARASPSQGDSDERESLTREEDEDSEKEEEEEDKEMEELQEEKECEKPQGDEEEEEEEEEVEEEEVEEAENEGEEAKTEGLMKDDRAESQASSLGQKVGESSEQVSEEKTNEA [ZEB1]	52.8	53.9	-0.154	-0.0271	-0.796	2.75
MADGSLTGGGLEAAAMAPERMGWAVEQELASLEKGLFQDEDSCSDCSYRDKPGSSLQSFMPEGKTFFPEIFQTNQLLFYERFRAYQDYILADCKASEVQEFTAEFLEKVLEPSGWRAVWHTNVFKVLVEITDVDFAALKAVVRLAEPYLCDSQVSTFTMECMKELLDLKEHRLPLQELWVVFDDSGVFDQTALAIEHVRFFYQNIWRSWDEEEEDEYDYFVRCVEPRLRLHYDILEDRVPSGLIVDYHNLLSQCEESYRKFLNLRSSLSNCNSDSEQENISMVEGLKLYSEMEQLKQKLKLIENPLLRYVFGYQKNSNIQAKGVRSSGQKITHVVSSTMMAGLLRSLLTDRLCQEPGEEEREIQFHSDPLSAINACFEGDTVIVCPGHYVVHGTFSIADSIELEGYGLPDDIVIEKRGKGDTFVDCTGADIKISGIKFVQHDAVEGILIVHRGKTTLENCVLQCETTGVTVRTSAEFLMKNSDLYGAKGAGIEIYPGSQCTLSDNGIHHCKEGILIKDFLDEHYDIPKISMVNNIIHNNEGYGVVLVKPTIFSDLQENAEDGTEENKALKIQTSGEPDVAERVDLEELIECATGKMELCARTDPSEQVEGNCEIVNELIAASTQKGQIKKKRLSELGITQADDNLMSQEMFVGIVGNQFKWNGKGSFGTFLF [SHCBP1]	49	50.4	-0.00275	-0.188	0.216	1.36
MADGVDHIDIYADVGEEFNQEAEYGGHDQIDLYDDVISPSANNGDAPEDRDYMDTLPPTVGDDVGKGAAPNVVYTYTGKRIALYIGNLTWWTTDEDLTEAVHSLGVNDILEIKFFENRANGQSKGFALVGVGSEASSKKLMDLLPKRELHGQNPVVTPCNKQFLSQFEMQSRKTTQSGQMSGEGKAGPPGGSSRAAFPQGGRGRGRFPGAVPGGDRFPGPAGPGGPPPPFPAGQTPPRPPLGPPGPPGPPGPPPPGQVLPPPLAGPPNRGDRPPPPVLFPGQPFGQPPLGPLPPGPPPPVPGYGPPPGPPPPQQGPPPPPGPFPPRPPGPLGPPLTLAPPPHLPGPPPGAPPPAPHVNPAFFPPPTNSGMPTSDSRGPPPTDPYGRPPPYDRGDYGPPGREMDTARTPLSEAEFEEIMNRNRAISSSAISRAVSDASAGDYGSAIETLVTAISLIKQSKVSADDRCKVLISSLQDCLHGIESKSYGSGSRRERSRERDHSRSREKSRRHKSRSRDRHDDYYRERSRERERHRDRDRDRDRERDREREYRHR [CPSF6]	53	53.2	-0.195	0.0573	-1.57	-2.72
MADHSFSDGVPSDSVEAAKNASNTEKLTDQVMQNPRVLAALQERLDNVPHTPSSYIETLPKAVKRRINALKQLQVRCAHIEAKFYEEVHDLERKYAALYQPLFDKRREFITGDVEPTDAESEWHSENEEEEKLAGDMKSKVVVTEKAAATAEEPDPKGIPEFWFTIFRNVDMLSELVQEYDEPILKHLQDIKVKFSDPGQPMSFVLEFHFEPNDYFTNSVLTKTYKMKSEPDKADPFSFEGPEIVDCDGCTIDWKKGKNVTVKTIKKKQKHKGRGTVRTITKQVPNESFFNFFNPLKASGDGESLDEDSEFTLASDFEIGHFFRERIVPRAVLYFTGEAIEDDDNFEEGEEGEEEELEGDEEGEDEDDAEINPKV [NAP1L4]	51.4	51.7	0.455	-0.0294	1.4	0.831
MADIDNKEQSELDQDLDDVEEVEEEETGEETKLKARQLTVQMMQNPQILAALQERLDGLVETPTGYIESLPRVVKRRVNALKNLQVKCAQIEAKFYEEVHDLERKYAVLYQPLFDKRFEIINAIYEPTEEECEWKPDEEDEISEELKEKAKIEDEKKDEEKEDPKGIPEFWLTVFKNVDLLSDMVQEHDEPILKHLKDIKVKFSDAGQPMSFVLEFHFEPNEYFTNEVLTKTYRMRSEPDDSDPFSFDGPEIMGCTGCQIDWKKGKNVTLKTIKKKQKHKGRGTVRTVTKTVSNDSFFNFFAPPEVPESGDLDDDAEAILAADFEIGHFLRERIIPRSVLYFTGEAIEDDDDDYDEEGEEADEEGEEEGDEENDPDYDPKKDQNPAECKQQ [NAP1L1]	49.7	50.9	0.329	-0.0741	2.07	2.03
MADKEAGGSDGPRETAPTSAYSSPARSLGDTGITPLSPSHIVNDTDSNVSEQQSFLVVVAVDFGTTSSGYAYSFTKEPECIHVMRRWEGGDPGVSNQKTPTTILLTPERKFHSFGYAARDFYHDLDPNEAKQWLYLEKFKMKLHTTGDLTMDTDLTAANGKKVKALEIFAYALQYFKEQALKELSDQAGSEFENSDVRWVITVPAIWKQPAKQFMRQAAYQAGLASPENSEQLIIALEPEAASIYCRKLRLHQMIELSSKAAVNGYSGSDTVGAGFTQAKEHIRRNRQSRTFLVENVIGEIWSELEEGDKYVVVDSGGGTVDLTVHQIRLPEGHLKELYKATGGPYGSLGVDYEFEKLLYKIFGEDFIEQFKIKRPAAWVDLMIAFESRKRAAAPDRTNPLNITLPFSFIDYYKKFRGHSVEHALRKSNVDFVKWSSQGMLRMSPDAMNALFKPTIDSIIEHLRDLFQKPEVSTVKFLFLVGGFAEAPLLQQAVQAAFGDQCRIIIPQDVGLTILKGAVLFGLDPAVIKVRRSPLTYGVGVLNRYVEGKHPPEKLLVKDGTRWCTDVFDKFISADQSVALGELVKRSYTPAKPSQLVIVINIYSSEHDNVSFITDPGVKKCGTLRLDLTGTSGTAVPARREIQTLMQFGDTEIKATAIDIATSKSVKVGIDFLNY [HSPA12A]	52.1	52.7	-0.123	-0.113	0.628	1
MADKVRRQRPRRRVCWALVAVLLADLLALSDTLAVMSVDLGSESMKVAIVKPGVPMEIVLNKESRRKTPVIVTLKENERFFGDSAASMAIKNPKATLRYFQHLLGKQADNPHVALYQARFPEHELTFDPQRQTVHFQISSQLQFSPEEVLGMVLNYSRSLAEDFAEQPIKDAVITVPVFFNQAERRAVLQAARMAGLKVLQLINDNTATALSYGVFRRKDINTTAQNIMFYDMGSGSTVCTIVTYQMVKTKEAGMQPQLQIRGVGFDRTLGGLEMELRLRERLAGLFNEQRKGQRAKDVRENPRAMAKLLREANRLKTVLSANADHMAQIEGLMDDVDFKAKVTRVEFEELCADLFERVPGPVQQALQSAEMSLDEIEQVILVGGATRVPRVQEVLLKAVGKEELGKNINADEAAAMGAVYQAAALSKAFKVKPFVVRDAVVYPILVEFTREVEEEPGIHSLKHNKRVLFSRMGPYPQRKVITFNRYSHDFNFHINYGDLGFLGPEDLRVFGSQNLTTVKLKGVGDSFKKYPDYESKGIKAHFNLDESGVLSLDRVESVFETLVEDSAEEESTLTKLGNTISSLFGGGTTPDAKENGTDTVQEEEESPAEGSKDEPGEQVELKEEAEAPVEDGSQPPPPEPKGDATPEGEKATEKENGDKSEAQKPSEKAEAGPEGVAPAPEGEKKQKPARKRRMVEEIGVELVVLDLPDLPEDKLAQSVQKLQDLTLRDLEKQEREKAANSLEAFIFETQDKLYQPEYQEVSTEEQREEISGKLSAASTWLEDEGVGATTVMLKEKLAELRKLCQGLFFRVEERKKWPERLSALDNLLNHSSMFLKGARLIPEMDQIFTEVEMTTLEKVINETWAWKNATLAEQAKLPATEKPVLLSKDIEAKMMALDREVQYLLNKAKFTKPRPRPKDKNGTRAEPPLNASASDQGEKVIPPAGQTEDAEPISEPEKVETGSEPGDTEPLELGGPGAEPEQKEQSTGQKRPLKNDEL [HYOU1]	54.1	54.4	0.402	-0.0667	3.86	5.24
MADLSLADALTEPSPDIEGEIKRDFIATLEAEAFDDVVGETVGKTDYIPLLDVDEKTGNSESKKKPCSETSQIEDTPSSKPTLLANGGHGVEGSDTTGSPTEFLEEKMAYQEYPNSQNWPEDTNFCFQPEQVVDPIQTDPFKMYHDDDLADLVFPSSATADTSIFAGQNDPLKDSYGMSPCNTAVVPQGWSVEALNSPHSESFVSPEAVAEPPQPTAVPLELAKEIEMASEERPPAQALEIMMGLKTTDMAPSKETEMALAKDMALATKTEVALAKDMESPTKLDVTLAKDMQPSMESDMALVKDMELPTEKEVALVKDVRWPTETDVSSAKNVVLPTETEVAPAKDVTLLKETERASPIKMDLAPSKDMGPPKENKKETERASPIKMDLAPSKDMGPPKENKIVPAKDLVLLSEIEVAQANDIISSTEISSAEKVALSSETEVALARDMTLPPETNVILTKDKALPLEAEVAPVKDMAQLPETEIAPAKDVAPSTVKEVGLLKDMSPLSETEMALGKDVTPPPETEVVLIKNVCLPPEMEVALTEDQVPALKTEAPLAKDGVLTLANNVTPAKDVPPLSETEATPVPIKDMEIAQTQKGISEDSHLESLQDVGQSAAPTFMISPETVTGTGKKCSLPAEEDSVLEKLGERKPCNSQPSELSSETSGIARPEEGRPVVSGTGNDITTPPNKELPPSPEKKTKPLATTQPAKTSTSKAKTQPTSLPKQPAPTTIGGLNKKPMSLASGLVPAAPPKRPAVASARPSILPSKDVKPKPIADAKAPEKRASPSKPASAPASRSGSKSTQTVAKTTTAAAVASTGPSSRSPSTLLPKKPTAIKTEGKPAEVKKMTAKSVPADLSRPKSTSTSSMKKTTTLSGTAPAAGVVPSRVKATPMPSRPSTTPFIDKKPTSAKPSSTTPRLSRLATNTSAPDLKNVRSKVGSTENIKHQPGGGRAKVEKKTEAAATTRKPESNAVTKTAGPIASAQKQPAGKVQIVSKKVSYSHIQSKCGSKDNIKHVPGGGNVQIQNKKVDISKVSSKCGSKANIKHKPGGGDVKIESQKLNFKEKAQAKVGSLDNVGHLPAGGAVKTEGGGSEAPLCPGPPAGEEPAISEAAPEAGAPTSASGLNGHPTLSGGGDQREAQTLDSQIQETSI [MAP4]	59		0.265	-0.0455	-3.19	-3.41
